This is an account of results in patent publication US20230183346A1 (INSERM INSTITUT NATIONAL DE LA SANTE ET DE LA RECHERCHE …, published 2023).

This experiment concerns the target T1, human BTLA (B and T lymphocyte attenuator), BTLA isoform 1 precursor (Homo sapiens) (human, UniProt Q7Z6A9 31-289).
T1 construct: BTLA was presented on CD3+ T cells of PBMC, on COS cells transfected with human BTLA in p3xFlag-myc-CMV25 (this construct may carry tags; not described), and on L-BTLA fibroblasts stably transfected with human BTLA; also called CD272
Put plainly: flow cytometry on CD3+ T cells among PBMC, 0.01-10 ug/ml. How it is done: T cells (CD3+) among PBMC were stained for BTLA with the anti BTLA mAbs at various concentration (from 0.01 μg/ml to 10μ,g/ml). […] Then COS transfected with human BTLA were incubated with the anti BTLA mAbs and then with HVEM-Fc before staining with an anti human IgG Fc PE. The percentage of inhibition was determined as 100-maximum of percentage of stained cells. […] The median fluorescence intensity of cells was determined. […] On the other hand, 7.1 and 8.2 antibodies were not able to compete against 4C7 mAb at a high dose (FIG. 3). […] Finally, γδT were obtained after a positive sorting of fresh purified PBMC and stained for Cell Trace Violet to follow the proliferation. Cells were incubated 5 days in IL2/Zometa with the different mAbs prior to analysis by flow cytometry. The addition of antibodies in the culture of the γδT lead to an upregulation of their proliferation. Cells incubated with the HVEM 18.10 mAb disclosed in WO2014184360 is able to proliferate more than cells incubated with the mock control (IgG1) (FIG. 4).

B1: 629.3 mAb (antibody, V domains shown)
VH: QVQLRESGPGLVAPSQSLSITCTVSGFSLNTYGVSWVRQPPGKGLEWLGVVWGDGNTNYHSVVISRLTINKDNSKSQVFLKLNSLQTDDTATYYCAKCYGSRFDYAMDYWGQGTSVTVSS
VL: DIVMSQSPSSLAVSIGEQVTMSCKSSQSLLSSRTRKNYLAWYQQRPGQSPKLLIYWASTRESGVPDRFTGSGSGTDFTLTISSVQAEDLAVYYCKQSYNLPTFGGGTRLEIK
notes: Mouse monoclonal antibody, detected with anti-mouse IgG
In the case of B1, the binding result is given as “binds”.
